From the supplement of paper PMC11316812
± gives the standard deviation of the averaged measurements.

What was measured:
[1] = system: MCF7; assay: percentage of EdU-negative (G0-arrested) nuclei per well, 72 h; higher = more G0 arrest; details: reference: sequence is the full UniProt precursor, the tested protein was the secreted form or ectodomain
[2] = system: hTERT-HMEC; assay: as above; details: reference: sequence is the full UniProt precursor, the tested protein was the secreted form or ectodomain
[3] = protein concentration 0.0225 µM
[4] = protein concentration 0.01525 µM
[5] = protein concentration 0.1525 µM
[6] = protein concentration 0.00925 µM
[7] = protein concentration 0.0925 µM
[8] = protein concentration 0.03125 µM
[9] = protein concentration 0.3125 µM
[10] = protein concentration 0.018565 µM
[11] = protein concentration 0.18565 µM
[12] = protein concentration 0.0105 µM
[13] = protein concentration 0.00828571 µM
[14] = protein concentration 0.0828571 µM
[15] = protein concentration 0.0328571 µM
[16] = protein concentration 0.328571 µM
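Also: secreted proteins added to cultured cells, EdU pulse at the end, nuclei found by Hoechst imaging, EdU status from nuclear versus surrounding ring intensity ratio, PBS as neutral control.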

MSGGHQLQLAALWPWLLMATLQAGFGRTGLVLAAAVESERSAEQKAIIRVIPLKMDPTGKLNLTLEGVFAGVAEITPAEGKLMQSHPLYLCNASDDDNLEPGFISIVKLESPRRAPRPCLSLASKARMAGERGASAVLFDITEDRAAAEQLQQPLGLTWPVVLIWGNDAEKLMEFVYKNQKAHVRIELKEPPAWPDYDVWILMTVVGTIFVIILASVLRIRCRPRHSRPDPLQQRTAWAISQLATRRYQASCRQARGEWPDSGSSCSSAPVCAICLEEFSEGQELRVISCLHEFHRNCVDPWLHQHRTCPLCMFNITEGDSFSQSLGPSRSYQEPGRRLHLIRQHPGHAHYHLPAAYLLGPSRSAVARPPRPGPFLPSQEPGMGPRHHRFPRAAHPRAPGEQQRLAGAQHPYAQGWGLSHLQSTSQHPAACPVPLRRARPPDSSGSGESYCTERSGYLADGPASDSSSGPCHGSSSDSVVNCTDISLQGVHGSSSTFCSSLSSDFDPLVYCSPKGDPQRVDMQPSVTSRPRSLDSVVPTGETQVSSHVHYHRHRHHHYKKRFQWHGRKPGPETGVPQSRPPIPRTQPQPEPPSPDQQVTRSNSAAPSGRLSNPQCPRALPEPAPGPVDASSICPSTSSLFNLQKSSLSARHPQRKRRGGPSEPTPGSRPQDATVHPACQIFPHYTPSVAYPWSPEAHPLICGPPGLDKRLLPETPGPCYSNSQPVWLCLTPRQPLEPHPPGEGPSEWSSDTAEGRPCPYPHCQVLSAQPGSEEELEELCEQAV [Q68DV7]
percentage of EdU-negative ([1]; protein concentration 0.032 µM): 24.9 ± 1%
percentage of EdU-negative ([1]; protein concentration 0.32 µM): 23.5 ± 1.3%
percentage of EdU-negative ([2]; protein concentration 0.032 µM): 4.69 ± 0.58%
percentage of EdU-negative ([2]; protein concentration 0.32 µM): 4.96 ± 0.2%

MSGGRAPAVLLGGVASLLLSFVWMPALLPVASRLLLLPRVLLTMASGSPPTQPSPASDSGSGYVPGSVSAAFVTCPNEKVAKEIARAVVEKRLAACVNLIPQITSIYEWKGKIEEDSEVLMMIKTQSSLVPALTDFVRSVHPYEVAEVIALPVEQGNFPYLQWVRQVTESVSDSITVLP
percentage of EdU-negative [1, 3]: 25.3 ± 1.7%
percentage of EdU-negative ([1]; protein concentration 0.225 µM): 25.2 ± 1.5%
percentage of EdU-negative [2, 3]: 4.5 ± 0.32%
percentage of EdU-negative ([2]; protein concentration 0.225 µM): 5.97 ± 0.34%

MSGPGTAAVALLPAVLLALLAPWAGRGGAAAPTAPNGTLEAELERRWESLVALSLARLPVAAQPKEAAVQSGAGDYLLGIKRLRRLYCNVGIGFHLQALPDGRIGGAHADTRDSLLELSPVERGVVSIFGVASRFFVAMSSKGKLYGSPFFTDECTFKEILLPNNYNAYESYKYPGMFIALSKNGKTKKGNRVSPTMKVTHFLPRL
percentage of EdU-negative [1, 4]: 27.2 ± 2.4%
percentage of EdU-negative [1, 5]: 28.58 ± 0.13%
percentage of EdU-negative [2, 4]: 5.05 ± 0.36%
percentage of EdU-negative [2, 5]: 5.7993 ± 0.0024%

MSILFYVIFLAYLRGIQGNNMDQRSLPEDSLNSLIIKLIQADILKNKLSKQMVDVKENYQSTLPKAEAPREPERGGPAKSAFQPVIAMDTELLRQQRRYNSPRVLLSDSTPLEPPPLYLMEDYVGSPVVANRTSRRKRYAEHKSHRGEYSVCDSESLWVTDKSSAIDIRGHQVTVLGEIKTGNSPVKQYFYETRCKEARPVKNGCRGIDDKHWNSQCKTSQTYVRALTSENNKLVGWRWIRIDTSCVCALSRKIGRT
percentage of EdU-negative [1, 6]: 25.37 ± 0.049%
percentage of EdU-negative [1, 7]: 27.3 ± 1.8%
percentage of EdU-negative [2, 6]: 4.75 ± 0.28%
percentage of EdU-negative [2, 7]: 6.72 ± 0.33%

MSISLSSLILLPIWINMAQIQQGGPDEKEKTTALKDLLSRIDLDELMKKDEPPLDFPDTLEGFEYAFNEKGQLRHIKTGEPFVFNYREDLHRWNQKRYEALGEIITKYVYELLEKDCNLKKVSIPVDATESEPKSFIFMSEDALTNPQKLMVLIHGSGVVRAGQWARRLIINEDLDSGTQIPFIKRAVAEGYGVIVLNPNENYIEVEKPKIHVQSSSDSSDEPAEKRERKDKVSKETKKRRDFYEKYRNPQREKEMMQLYIRENGSPEEHAIYVWDHFIAQAAAENVFFVAHSYGGLAFVELMIQREADVKNKVTAVALTDSVHNVWHQEAGKTIREWMRENCCNWVSSSEPLDTSVESMLPDCPRVSAGTDRHELTSWKSFPSIFKFFTEASEAKTSSLKPAVTRRSHRIKHEEL [Q8WUF8]
percentage of EdU-negative [1, 3]: 24.1 ± 1.1%
percentage of EdU-negative ([1]; protein concentration 0.225 µM): 24 ± 0.46%
percentage of EdU-negative [2, 3]: 4.387 ± 0.021%
percentage of EdU-negative ([2]; protein concentration 0.225 µM): 5.5592 ± 0.0051%

MSLMVVSMVCVGFFLLQGAWPHEGVHRKPSLLAHPGPLVKSEETVILQCWSDVRFQHFLLHREGKFKDTLHLIGEHHDGVSKANFSIGPMMQDLAGTYRCYGSVTHSPYQLSAPSDPLDIVITGLYEKPSLSAQPGPTVLAGESVTLSCSSRSSYDMYHLSREGEAHERRFSAGPKVNGTFQADFPLGPATHGGTYRCFGSFRDSPYEWSNSSDPLLVSVTGNPSNSWPSPTEPSSETGNPRHLHVLIGTSVVIILFILLLFFLLHRWCCNKKNAVVMDQEPAGNRTVNREDSDEQDPQEVTYAQLNHCVFTQRKITRPSQRPKTPPTDIIVYTELPNAEP
percentage of EdU-negative [1, 3]: 22.6 ± 0.43%
percentage of EdU-negative ([1]; protein concentration 0.225 µM): 26.6 ± 2.4%
percentage of EdU-negative [2, 3]: 5.55 ± 0.17%
percentage of EdU-negative ([2]; protein concentration 0.225 µM): 11.3 ± 1.1%

MSLRLDTTPSCNSARPLHALQVLLLLSLLLTALASSTKGQTKRNLAKGKEESLDSDLYAELRCMCIKTTSGIHPKNIQSLEVIGKGTHCNQVEVIATLKDGRKICLDPDAPRIKKIVQKKLAGDESAD
percentage of EdU-negative [1, 8]: 26.14 ± 0.19%
percentage of EdU-negative [1, 9]: 26.53 ± 0.004%
percentage of EdU-negative [2, 8]: 5.49 ± 1.9%
percentage of EdU-negative [2, 9]: 4.65 ± 0.1%

MSLSAFTLFLALIGGTSGQYYDYDFPLSIYGQSSPNCAPECNCPESYPSAMYCDELKLKSVPMVPPGIKYLYLRNNQIDHIDEKAFENVTDLQWLILDHNLLENSKIKGRVFSKLKQLKKLHINHNNLTESVGPLPKSLEDLQLTHNKITKLGSFEGLVNLTFIHLQHNRLKEDAVSAAFKGLKSLEYLDLSFNQIARLPSGLPVSLLTLYLDNNKISNIPDEYFKRFNALQYLRLSHNELADSGIPGNSFNVSSLVELDLSYNKLKNIPTVNENLENYYLEVNQLEKFDIKSFCKILGPLSYSKIKHLRLDGNRISETSLPPDMYECLRVANEVTLN
percentage of EdU-negative [1, 10]: 25.7 ± 0.65%
percentage of EdU-negative [1, 11]: 25.1 ± 0.99%
percentage of EdU-negative [2, 10]: 5.59 ± 1.8%
percentage of EdU-negative [2, 11]: 6.27 ± 1.2%

MSLSFLLLLFFSHLILSAWAHGEKRLAPKGQPGPAATDRNPRGSSSRQSSSSAMSSSSASSSPAASLGSQGSGLEQSSFQWSPSGRRTGSLYCRVGIGFHLQIYPDGKVNGSHEANMLSVLEIFAVSQGIVGIRGVFSNKFLAMSKKGKLHASAKFTDDCKFRERFQENSYNTYASAIHRTEKTGREWYVALNKRGKAKRGCSPRVKPQHISTHFLPRFKQSEQPELSFTVTVPEKKKPPSPIKPKIPLSAPRKNTNSVKYRLKFRFG
percentage of EdU-negative [1, 8]: 27.9 ± 2.3%
percentage of EdU-negative [1, 9]: 28 ± 0.77%
percentage of EdU-negative [2, 8]: 4.71 ± 0.44%
percentage of EdU-negative [2, 9]: 5.28 ± 0.53%

MSLVLLSLAALCRSAVPREPTVQCGSETGPSPEWMLQHDLIPGDLRDLRVEPVTTSVATGDYSILMNVSWVLRADASIRLLKATKICVTGKSNFQSYSCVRCNYTEAFQTQTRPSGGKWTFSYIGFPVELNTVYFIGAHNIPNANMNEDGPSMSVNFTSPGCLDHIMKYKKKCVKAGSLWDPNITACKKNEETVEVNFTTTPLGNRYMALIQHSTIIGFSQVFEPHQKKQTRASVVIPVTGDSEGATVQLTPYFPTCGSDCIRHKGTVVLCPQTGVPFPLDNNKSKPGGWLPLLLLSLLVATWVLVAGIYLMWRHERIKKTSFSTTTLLPPIKVLVVYPSEICFHHTICYFTEFLQNHCRSEVILEKWQKKKIAEMGPVQWLATQKKAADKVVFLLSNDVNSVCDGTCGKSEGSPSENSQDLFPLAFNLFCSDLRSQIHLHKYVVVYFREIDTKDDYNALSVCPKYHLMKDATAFCAELLHVKQQVSAGKRSQACHDGCCSL [Q9NRM6]
percentage of EdU-negative [1, 3]: 25.3 ± 1.3%
percentage of EdU-negative ([1]; protein concentration 0.225 µM): 26.76 ± 0.21%
percentage of EdU-negative [2, 3]: 4.78 ± 0.46%
percentage of EdU-negative ([2]; protein concentration 0.225 µM): 5.29 ± 0.1%

MSLWKKTVYRSLCLALALLVAVTVFQRSLTPGQFLQEPPPPTLEPQKAQKPNGQLVNPNNFWKNPKDVAAPTPMASQGPQAWDVTTTNCSANINLTHQPWFQVLEPQFRQFLFYRHCRYFPMLLNHPEKCRGDVYLLVVVKSVITQHDRREAIRQTWGRERQSAGGGRGAVRTLFLLGTASKQEERTHYQQLLAYEDRLYGDILQWGFLDTFFNLTLKEIHFLKWLDIYCPHVPFIFKGDDDVFVNPTNLLEFLADRQPQENLFVGDVLQHARPIRRKDNKYYIPGALYGKASYPPYAGGGGFLMAGSLARRLHHACDTLELYPIDDVFLGMCLEVLGVQPTAHEGFKTFGISRNRNSRMNKEPCFFRAMLVVHKLLPPELLAMWGLVHSNLTCSRKLQVL [Q8NFL0]
percentage of EdU-negative [1, 12]: 25.6 ± 1%
percentage of EdU-negative ([1]; protein concentration 0.105 µM): 27.97 ± 0.1%
percentage of EdU-negative [2, 12]: 4.88 ± 0.47%
percentage of EdU-negative ([2]; protein concentration 0.105 µM): 6.5 ± 1.4%

MSLWQPLVLVLLVLGCCFAAPRQRQSTLVLFPGDLRTNLTDRQLAEEYLYRYGYTRVAEMRGESKSLGPALLLLQKQLSLPETGELDSATLKAMRTPRCGVPDLGRFQTFEGDLKWHHHNITYWIQNYSEDLPRAVIDDAFARAFALWSAVTPLTFTRVYSRDADIVIQFGVAEHGDGYPFDGKDGLLAHAFPPGPGIQGDAHFDDDELWSLGKGVVVPTRFGNADGAACHFPFIFEGRSYSACTTDGRSDGLPWCSTTANYDTDDRFGFCPSERLYTQDGNADGKPCQFPFIFQGQSYSACTTDGRSDGYRWCATTANYDRDKLFGFCPTRADSTVMGGNSAGELCVFPFTFLGKEYSTCTSEGRGDGRLWCATTSNFDSDKKWGFCPDQGYSLFLVAAHEFGHALGLDHSSVPEALMYPMYRFTEGPPLHKDDVNGIRHLYGPRPEPEPRPPTTTTPQPTAPPTVCPTGPPTVHPSERPTAGPTGPPSAGPTGPPTAGPSTATTVPLSPVDDACNVNIFDAIAEIGNQLYLFKDGKYWRFSEGRGSRPQGPFLIADKWPALPRKLDSVFEERLSKKLFFFSGRQVWVYTGASVLGPRRLDKLGLGADVAQVTGALRSGRGKMLLFSGRRLWRFDVKAQMVDPRSASEVDRMFPGVPLDTHDVFQYREKAYFCQDRFYWRVSSRSELNQVDQVGYVTYDILQCPED
percentage of EdU-negative [1, 13]: 24.2 ± 1.4%
percentage of EdU-negative [1, 14]: 24.7 ± 0.13%
percentage of EdU-negative [2, 13]: 4.71 ± 0.63%
percentage of EdU-negative [2, 14]: 6.64 ± 0.96%

MSMLVVFLLLWGVTWGPVTEAAIFYETQPSLWAESESLLKPLANVTLTCQAHLETPDFQLFKNGVAQEPVHLDSPAIKHQFLLTGDTQGRYRCRSGLSTGWTQLSKLLELTGPKSLPAPWLSMAPVSWITPGLKTTAVCRGVLRGVTFLLRREGDHEFLEVPEAQEDVEATFPVHQPGNYSCSYRTDGEGALSEPSATVTIEELAAPPPPVLMHHGESSQVLHPGNKVTLTCVAPLSGVDFQLRRGEKELLVPRSSTSPDRIFFHLNAVALGDGGHYTCRYRLHDNQNGWSGDSAPVELILSDETLPAPEFSPEPESGRALRLRCLAPLEGARFALVREDRGGRRVHRFQSPAGTEALFELHNISVADSANYSCVYVDLKPPFGGSAPSERLELHVDGPPPRPQLRATWSGAVLAGRDAVLRCEGPIPDVTFELLREGETKAVKTVRTPGAAANLELIFVGPQHAGNYRCRYRSWVPHTFESELSDPVELLVAES
percentage of EdU-negative [1, 15]: 24.5 ± 4.7%
percentage of EdU-negative [1, 16]: 27.1 ± 2.2%
percentage of EdU-negative [2, 15]: 5.27 ± 0.37%
percentage of EdU-negative [2, 16]: 10.2 ± 0.85%
